In test [1] the target is T1, K8(1-129)/intact K18 heterotypic complex (human, UniProt P05787 2-130; P05783 2-430).
T1 construct: Heterotypic complex of two GST fusion proteins; not shown: glutathione S-transferase (GST) fusion partner, modified pGEX-2T vector
T1 chain 1: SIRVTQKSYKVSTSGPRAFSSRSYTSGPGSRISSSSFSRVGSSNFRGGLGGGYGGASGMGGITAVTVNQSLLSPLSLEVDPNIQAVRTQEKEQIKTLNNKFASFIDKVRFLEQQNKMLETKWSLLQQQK
T1 chain 2: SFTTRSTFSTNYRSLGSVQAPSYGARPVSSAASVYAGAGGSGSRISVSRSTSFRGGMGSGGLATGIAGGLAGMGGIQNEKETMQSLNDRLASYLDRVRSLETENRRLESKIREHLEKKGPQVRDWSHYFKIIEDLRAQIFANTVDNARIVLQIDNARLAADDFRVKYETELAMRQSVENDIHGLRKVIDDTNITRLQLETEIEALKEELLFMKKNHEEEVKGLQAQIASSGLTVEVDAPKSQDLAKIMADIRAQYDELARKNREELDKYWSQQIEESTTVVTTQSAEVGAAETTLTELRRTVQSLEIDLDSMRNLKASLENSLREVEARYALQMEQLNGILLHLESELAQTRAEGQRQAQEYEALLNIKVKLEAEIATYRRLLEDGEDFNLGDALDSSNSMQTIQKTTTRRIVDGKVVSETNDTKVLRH
Put plainly: ELISA: complex coated at 5 µg/ml, COU-1 in serial dilutions, AP-labeled anti-human kappa antibody.

Test [2] deals with T2, intact K8, native (band 1 of cytokeratin purified from colon cancer tissue; K8 in fixed cancer cells) (human, UniProt P05787 2-483, N-terminally blocked).
T2 construct: Natural protein, no tag; also called normal K8; cytokeratin 8
T2 chain: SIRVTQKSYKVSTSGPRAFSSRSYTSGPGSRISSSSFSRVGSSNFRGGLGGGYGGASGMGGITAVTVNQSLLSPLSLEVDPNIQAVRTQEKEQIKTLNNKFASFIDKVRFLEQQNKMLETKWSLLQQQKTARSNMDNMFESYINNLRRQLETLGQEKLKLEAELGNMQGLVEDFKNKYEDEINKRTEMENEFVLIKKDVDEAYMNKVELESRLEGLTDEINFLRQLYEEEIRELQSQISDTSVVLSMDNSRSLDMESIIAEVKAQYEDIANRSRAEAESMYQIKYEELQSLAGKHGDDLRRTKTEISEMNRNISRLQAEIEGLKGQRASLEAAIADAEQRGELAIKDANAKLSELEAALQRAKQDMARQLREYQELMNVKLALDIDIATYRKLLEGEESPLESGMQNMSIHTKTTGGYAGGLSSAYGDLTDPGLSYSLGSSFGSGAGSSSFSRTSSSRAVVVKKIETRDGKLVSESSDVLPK
Put plainly: strips of a PVDF blot of SDS-PAGE-separated cytokeratin purified from colon cancer tissue.

For test [3], the target named is T3, intact K18, native (band 3 of cytokeratin purified from colon cancer tissue; K18 in fixed cancer cells) (human, UniProt P05783 2-430, acetylated serine at its N-terminus).
T3 construct: Natural protein, no tag; also called normal K18; cytokeratin 18
T3 sequence: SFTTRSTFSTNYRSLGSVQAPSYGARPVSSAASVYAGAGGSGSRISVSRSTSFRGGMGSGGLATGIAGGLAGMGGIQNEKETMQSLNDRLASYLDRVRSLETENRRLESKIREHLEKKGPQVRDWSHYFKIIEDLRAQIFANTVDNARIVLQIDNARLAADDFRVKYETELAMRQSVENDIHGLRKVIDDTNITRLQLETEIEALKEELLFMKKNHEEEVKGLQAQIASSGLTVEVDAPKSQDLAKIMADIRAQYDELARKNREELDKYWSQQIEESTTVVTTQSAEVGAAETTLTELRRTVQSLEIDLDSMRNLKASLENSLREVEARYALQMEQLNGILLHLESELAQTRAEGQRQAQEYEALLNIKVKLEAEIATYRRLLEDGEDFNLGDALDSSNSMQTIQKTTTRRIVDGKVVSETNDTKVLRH
The description is as above.

The target of test [4] is T4, K8(300-483)/intact K18 heterotypic complex.
T4 construct: one member of the group m25; not shown: N-terminal GST carrier (modified pGEX-2T) and its linker on the keratin constructs
T4 chain 1: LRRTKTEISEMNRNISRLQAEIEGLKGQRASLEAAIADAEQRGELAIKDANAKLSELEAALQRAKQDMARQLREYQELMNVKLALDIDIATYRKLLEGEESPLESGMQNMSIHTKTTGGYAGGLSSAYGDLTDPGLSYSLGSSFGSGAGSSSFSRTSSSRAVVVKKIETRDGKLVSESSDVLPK
T4 chain 2: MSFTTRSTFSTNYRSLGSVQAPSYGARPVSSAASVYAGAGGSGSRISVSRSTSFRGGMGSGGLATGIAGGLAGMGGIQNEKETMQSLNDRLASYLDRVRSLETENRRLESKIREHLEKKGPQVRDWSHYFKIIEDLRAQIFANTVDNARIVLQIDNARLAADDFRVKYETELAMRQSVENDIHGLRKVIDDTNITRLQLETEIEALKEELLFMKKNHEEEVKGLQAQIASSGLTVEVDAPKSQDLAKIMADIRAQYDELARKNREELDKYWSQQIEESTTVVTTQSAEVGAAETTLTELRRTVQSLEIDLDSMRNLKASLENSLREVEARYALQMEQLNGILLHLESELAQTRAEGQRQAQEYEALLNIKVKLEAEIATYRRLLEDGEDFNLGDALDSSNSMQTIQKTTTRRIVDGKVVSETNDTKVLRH
Put plainly: summary map of the heterotypic association assay: GST deletion protein incubated with the complementary keratin, then stained with COU-1.

In test [5] the target is T5, K8(240-483)/intact K18 heterotypic complex.
T5 construct: one member of the group m25; not shown: N-terminal GST carrier (modified pGEX-2T) and its linker on the keratin constructs
T5 chain 1: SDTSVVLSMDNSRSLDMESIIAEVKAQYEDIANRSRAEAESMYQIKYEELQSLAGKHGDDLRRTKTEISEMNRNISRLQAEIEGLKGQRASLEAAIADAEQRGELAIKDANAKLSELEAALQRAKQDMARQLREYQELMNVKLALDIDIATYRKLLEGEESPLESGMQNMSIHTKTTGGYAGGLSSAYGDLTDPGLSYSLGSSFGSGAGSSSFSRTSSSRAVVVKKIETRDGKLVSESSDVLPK
T5 chain 2: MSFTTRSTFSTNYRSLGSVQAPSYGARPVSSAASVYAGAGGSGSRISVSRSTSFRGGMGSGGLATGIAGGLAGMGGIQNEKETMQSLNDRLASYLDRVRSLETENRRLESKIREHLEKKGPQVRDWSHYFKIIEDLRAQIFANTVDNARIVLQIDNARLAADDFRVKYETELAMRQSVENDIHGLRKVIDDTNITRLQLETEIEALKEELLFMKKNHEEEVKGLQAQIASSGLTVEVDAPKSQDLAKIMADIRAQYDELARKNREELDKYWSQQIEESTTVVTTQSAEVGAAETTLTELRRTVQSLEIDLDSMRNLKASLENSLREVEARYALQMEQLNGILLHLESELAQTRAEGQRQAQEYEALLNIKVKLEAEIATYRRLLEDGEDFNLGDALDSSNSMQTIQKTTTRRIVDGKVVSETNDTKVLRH
The test is described as above.

Test [6] addresses T6, K8(1-85)/intact K18 heterotypic complex (human, UniProt P05787 2-86; P05783 2-430).
T6 construct: Heterotypic complex of two GST fusion proteins; also called intact K8(1-85)/intact K18; not shown: glutathione S-transferase (GST) fusion partner, modified pGEX-2T vector
T6 chain 1: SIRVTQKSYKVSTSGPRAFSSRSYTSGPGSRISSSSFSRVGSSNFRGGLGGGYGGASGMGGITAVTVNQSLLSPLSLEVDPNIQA
T6 chain 2: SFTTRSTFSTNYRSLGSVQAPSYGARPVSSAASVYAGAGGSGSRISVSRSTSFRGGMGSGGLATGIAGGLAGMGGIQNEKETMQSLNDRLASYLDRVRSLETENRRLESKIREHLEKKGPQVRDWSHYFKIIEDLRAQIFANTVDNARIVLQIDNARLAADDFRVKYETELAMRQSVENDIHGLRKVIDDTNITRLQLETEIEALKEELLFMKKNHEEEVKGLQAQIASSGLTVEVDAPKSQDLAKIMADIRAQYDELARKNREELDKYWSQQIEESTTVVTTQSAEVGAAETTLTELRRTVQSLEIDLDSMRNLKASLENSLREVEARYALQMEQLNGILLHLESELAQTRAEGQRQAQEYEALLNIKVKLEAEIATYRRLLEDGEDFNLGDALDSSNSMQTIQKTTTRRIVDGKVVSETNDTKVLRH
Described as above.

In test [7] the target is T7, intact K8/K18(1-72) heterotypic complex (human, UniProt P05787 2-483; P05783 2-73).
T7 construct: Heterotypic complex of two GST fusion proteins; also called K18(1-72)/intact K8; not shown: glutathione S-transferase (GST) fusion partner, modified pGEX-2T vector
T7 chain 1: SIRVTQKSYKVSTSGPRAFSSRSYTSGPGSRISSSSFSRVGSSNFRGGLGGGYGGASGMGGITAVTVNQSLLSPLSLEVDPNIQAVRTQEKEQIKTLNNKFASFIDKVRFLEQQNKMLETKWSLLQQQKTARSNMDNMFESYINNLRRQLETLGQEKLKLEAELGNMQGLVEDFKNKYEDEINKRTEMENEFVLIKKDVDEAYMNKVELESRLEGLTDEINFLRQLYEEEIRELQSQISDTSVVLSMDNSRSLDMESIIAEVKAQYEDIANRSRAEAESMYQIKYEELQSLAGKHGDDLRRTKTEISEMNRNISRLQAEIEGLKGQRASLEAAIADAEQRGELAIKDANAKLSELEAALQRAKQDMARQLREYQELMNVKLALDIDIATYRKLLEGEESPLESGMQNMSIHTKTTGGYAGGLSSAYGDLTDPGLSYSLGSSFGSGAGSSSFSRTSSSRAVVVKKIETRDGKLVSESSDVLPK
T7 chain 2: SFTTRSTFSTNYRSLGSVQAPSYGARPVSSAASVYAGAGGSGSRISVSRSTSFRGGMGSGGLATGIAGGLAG
The test is described as above.

The values that follow come from patent US20050048070A1 (published 2005).

B1: human monoclonal IgM antibody COU-1 (antibody, V domains shown)
VH: GAEVKKPGASVKVSCKASDYTFSSYYMHWVRQAPGQGLEWMGIINPSGGSTSYAQKFQGRVTMTRDTSTNTVYMELSSLRSEDTAVYYCARDQVVVAATLSNYGMDVWGQGTTVTVSS
VL: ELTQSPGTLSLSPGERATLSCRASQSVSSSYLAWYQQKPGQAPRLLIYDASNRATGIPARFSGSGSGTDFTLTISSLEPEDFAVYYCQQGTNWGIAFGQGTRLDIKR
notes: Human IgM with kappa light chain, secreted by hybridoma B9165 (ECACC 87040201), purified from culture supernatant; also called HMab COU-1; HuMab COU-1
Regarding B1, the “EC50 (read off the curve)” value in test [1] was ~0.6 µg/mL. Besides, the binding result was “no binding (tested: 5 µg/ml COU-1 (P-0279))” in test [2]; “no binding (tested: 5 µg/ml COU-1 (P-0279))” in test [3]; “no binding (tested: 5 µg/ml COU-1 (P-0285))” in test [4]; “no binding (tested: 5 µg/ml COU-1 (P-0285))” in test [5]; “no binding (tested: 5 µg/ml COU-1 (P-0285))” in test [6]; “no binding (tested: 5 µg/ml COU-1 (P-0285))” in test [7].
